The results in this text go back to patent publication US20160348112.

As usually defined, the Kd is the constant that tells how readily two partners part at equilibrium.

This series deals with Clumping factor A (ClfA) (Staphylococcus aureus NRS384 (USA300)) (UniProt Q2G015). The series can be described thus: filter. The following applies: BndU at every n (W); full-length clone also has fixed flanking regions not printed [BndU at 2,4,7,8,14,20,21,27,29,32,33,34,35,36,40]; SB18T, 5 mM MgCl2; full-length aptamer.
Clumping factor A (ClfA) (Staphylococcus aureus NRS384 (USA300)), sequence (Q2G015 40-893): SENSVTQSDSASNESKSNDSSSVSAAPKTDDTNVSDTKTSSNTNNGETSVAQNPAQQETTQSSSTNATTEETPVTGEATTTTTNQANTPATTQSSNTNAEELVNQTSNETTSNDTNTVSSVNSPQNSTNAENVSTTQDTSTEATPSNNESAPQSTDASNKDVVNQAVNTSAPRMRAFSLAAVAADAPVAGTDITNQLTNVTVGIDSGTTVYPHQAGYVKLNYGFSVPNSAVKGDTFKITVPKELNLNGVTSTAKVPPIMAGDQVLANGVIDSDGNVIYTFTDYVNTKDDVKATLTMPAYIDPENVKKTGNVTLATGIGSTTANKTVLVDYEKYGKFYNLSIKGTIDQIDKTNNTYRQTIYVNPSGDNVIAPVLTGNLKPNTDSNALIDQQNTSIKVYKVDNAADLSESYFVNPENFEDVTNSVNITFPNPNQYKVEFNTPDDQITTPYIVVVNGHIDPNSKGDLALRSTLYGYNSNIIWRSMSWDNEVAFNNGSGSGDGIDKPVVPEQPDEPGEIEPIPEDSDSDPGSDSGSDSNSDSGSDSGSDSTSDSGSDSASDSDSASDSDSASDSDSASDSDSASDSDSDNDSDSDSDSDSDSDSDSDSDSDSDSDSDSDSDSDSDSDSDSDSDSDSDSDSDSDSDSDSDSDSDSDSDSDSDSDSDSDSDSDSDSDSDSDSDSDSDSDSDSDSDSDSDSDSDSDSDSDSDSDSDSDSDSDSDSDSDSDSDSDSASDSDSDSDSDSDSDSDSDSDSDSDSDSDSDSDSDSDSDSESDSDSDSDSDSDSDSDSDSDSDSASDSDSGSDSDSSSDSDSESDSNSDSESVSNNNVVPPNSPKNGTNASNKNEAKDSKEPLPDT

In turn, “ATCTGGTTCAAAGTGGCGATTGGGCATCTGGTTTTTAAGT [4503-73]” showed a Kd of 0.79 nM.
